The record followed here is article PMC2217137.

The target in this test is rabbit skeletal muscle Ca2+ release channel (ryanodine receptor), purified 30 S complex (rabbit) (UniProt P11716). The test is described as follows: single-channel recording in planar lipid bilayers.

pKd: −log10 of the molar value.

In turn, “imperatoxin activator (IpTxa), native, purified from Pandinus imperator venom (from UniProt P59868 1-33) (peptide)” had a pKd of 7.74, a time constant of dwell times in the burst (toxin-free) state at 100 nM IpTxa of 965 ms and a time constant of dwell times in the subconductance (toxin-bound) state of 3380 ms.

“imperatoxin activator (IpTxa), synthetic (from UniProt P59868 1-33) (peptide)” registered a K m (of P substate against [IpTxa]) of 2 nM.

One may read the pKd as the Kd on a negative log10 scale, so that one unit is a factor of ten. A low value points to a high Kd.
